Measurements as given in article doi:10.1101/2022.09.20.508747, “Affinity-matured homotypic interactions induce spectrum of PfCSP-antibody structures that influence protection from malaria infection” (bioRxiv, 2022).
Substitutions are numbered along the chain they refer to. Primed or numbered codes have the meaning given here. No end group written: not given here. Biotin′ = biotin

B1: 334 Fab (Fab, V domains shown)
VH: QVQLVESGGGVVQPGRSLTLSCAASGFTFSNYGMHWVRQTPGKGLAWVAIIWYDGSKTYYEDSVKGRFTISRDNSKNTLYLQMNSLRVDDTAVYYCARVRHSSSRHGSAFDLWGQGTLVTVSS
VL: VIQMTQSPSTLSASVGDRVTITCRASQSVSTWLAWYQQKPGQGPKLLIYEASSLESGVPSRFSGSGSGTEFTLTISSLQPDDFATYYCQQYNSYSFWTFGQGTKVEIK
notes: also called mAb 334; source: ExpiCHO cells, purified (mAb Select PrismA or Capture Select, SEC)
B2: 337 Fab (Fab, V domains shown)
VH: QVQLVESGGGVVQPGRSLRLSCAASGFSFSTYGMHWVRQAPGKGLEWVALIWHDGSKKFYSESVRGRFTISRDNSMDTLYLQMSSLRAEDTAVYYCARDGADYFDSTGGAFDIWGQGTMVIVSS
VL: EIVMTQSPATLSVSPGERATLSCRASQSVSSNLAWYQQKPGQAPRLLIYGASTRATGIPARFSGSGSGTEFTLTISSLQSEDFATYYCQQYKTWWTFGQGTKVEIK
notes: also called mAb 337; source: ExpiCHO cells, purified (mAb Select PrismA or Capture Select, SEC)
B3: 356 Fab (Fab, V domains shown)
VH: QVQLVESGGGVVQPGRSLRLSCAASGFTFRNFGMHWVRQTPGKGLEWVAVIWHDGSNKFYADSVEGRFTISRDNSKNMIYLQMNSLRVEDTAIYYCARDSLFYDHDNSGYYGYWGQGTLVTVSS
VL: QIVMTQSPATVSVSPGERATLSCRASRSVTSKLAWYQQKPGQAPRLLIYGASTRATGIPARFSGSGSGTEFTLTISSLQSEDFAVYFCQQYNNGFTFGPGTKVDFK
notes: also called mAb 356; source: ExpiCHO cells, purified (mAb Select PrismA or Capture Select, SEC)
B4: 356R Fab (Fab, V domains shown)
VH: B3 VH with R30S, N31S, F32Y, E65K
VL: B3 VL with Q1E, R27Q
notes: also called germline-reverted 356; source: ExpiCHO cells, purified (mAb Select PrismA or Capture Select, SEC)
B5: 239 Fab (Fab, V domains shown)
VH: QVQLVESGGGVVQPGRSLRLSCAASRLTFRNFGMHWVRQTPGKGLEWVAVIWHDGSNKFYADSVEGRFTISRDNSKNTLYLQMNSLRDEDTAIYYCAKDWGGASDRVFDYWGRGTLVIVSS
VL: DIQMTQSPSTLSASVGDRVTITCRASQSVSTSLAWYQQKPGKAPNLLIYQASTLYRGVPSRFSGSGSGTEFTLTIGSLQPDDFATYYCQHYNSYSRITFGQGTRLEIK
notes: also called mAb 239; source: ExpiCHO cells, purified (mAb Select PrismA or Capture Select, SEC)
B6: 239R Fab (Fab, V domains shown)
VH: B5 VH with R30S, N31S, F32Y, E65K
VL: B5 VL with R56T
notes: also called germline-reverted 239; source: ExpiCHO cells, purified (mAb Select PrismA or Capture Select, SEC)
B7: 227 Fab (Fab, V domains shown)
VH: QVQLVQSGGGVVQPGRSLRLSCVTSGFTFPAFGMHWVRQAPGKGLEWVAVIWYDGSKKYYADSVRGRFTISRDNSRNTLYLQMHSLRAEDTAVYYCARVKNYESSGYSQCLDYWGQGVLVTVAS
VL: QSVLTQPPSVSGAPGQRVTISCTGSSSNIGAGYDVHWYQQLPGTAPKLLIYGNGNRPSGVPDRFSGSKSGTSVSLAITGLQAEDEADYYCQSYDSSLSAFVFGTGTKVTVL
notes: also called mAb 227; source: ExpiCHO cells, purified (mAb Select PrismA or Capture Select, SEC)
B8: 364 Fab (Fab, V domains shown)
VH: QVQLVESGGGVVQPGGSLRLSCAASGFTFSGYGMHWVRQVPGKGLEWVAIIWFDGSQKYYADSVQGRFTISRDNSKKTLFLRMNSLRAEDTAVYYCAKVHDDEPTQDYWGQGTLVTVSS
VL: DIQMTQSPSTLSASVGDRVTITCRASQGISTSLAWYQQKPGKAPKLLIYKASSLESGVPSRFSGSGSGTEFTLTITSLQPEDFATYYCQQYKRYWTFGQGTKVEIK
notes: also called mAb 364; source: ExpiCHO cells, purified (mAb Select PrismA or Capture Select, SEC)
B9: 311 Fab (Fab, V domains shown)
VH: QVQLVESGGGVVPPGRSLRLSCATSGFTFSNYGMHWVRQAPGKGLEWVAIIWYDGSRNFYAASVEGRFTISRDNSKNTLYLQMNSLRVEDTAVYYCARAAYYDTSGYGDYWGQGTLVTVSS
VL: QSVLTQPPSVSGAPGQTVTISCTGGSSNIGAGYDVHWYQQLPGTAPKLLIYGNINRPSGVPDRFSGSKSGTSASLAITGLQAEDEADYYCQSYDRRLSGSWVFGGGTKLTVL
notes: source: ExpiCHO cells, purified (mAb Select PrismA or Capture Select, SEC)
B10: 311R Fab (Fab, V domains shown)
VH: B9 VH with N31S, R57N, N58K, E65K
VL: B9 VL with R95S, R96S
notes: also called Fab311R; germline-reverted 311; source: ExpiCHO cells, purified (mAb Select PrismA or Capture Select, SEC)

Tests used:
Conditions in all cases: both partners purified
[1] = molecular target: T1, NPNA8 peptide, biotinylated (for BLI) (Plasmodium falciparum); assay: BLI
T1 construct: source: synthetic peptide, InnoPep Inc
T1 chain: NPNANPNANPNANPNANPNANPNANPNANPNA

[2] = molecular target: T2, NPNA4 peptide, biotinylated (for BLI) (Plasmodium falciparum); assay: BLI
T2 construct: source: synthetic peptide, InnoPep Inc
T2 chain: NPNANPNANPNANPNA-{Biotin′}

[3] = molecular target: T3, NPNA8 peptide (for cryo-EM) (Plasmodium falciparum); assay: cryo-EM structure
T3 construct: source: synthetic peptide, InnoPep Inc
T3 chain: T1 chain

Row | Binder | binding result [1] | binding result [2] | fold higher apparent affinity than 356 [2] [fold] | fold lower apparent affinity than 239 [2] [fold] | stoichiometry N [3] [Fabs per NPNA8 peptide]
1 | B1 | binds | binds | – | – | –
2 | B2 | binds | binds | – | – | –
3 | B3 | binds | binds | – | – | –
4 | B4 | binds | – | ~2 | – | –
5 | B5 | binds | binds | – | – | –
6 | B6 | binds | – | – | ~2 | –
7 | B7 | – | binds | – | – | 4
8 | B8 | binds | binds | – | – | –
9 | B9 | binds | binds | – | – | –
10 | B10 | binds | binds | – | – | –
